This is an account of results in patent US20200115434A1 (EUREKA THERAPEUTICS, published 2020).

Experiment [1] addresses T1, PE-labeled AFP158/HLA-A*02:01 tetramer (human, biotinylated via the BSP peptide linked to the C-terminal end of the extracellular domain).
T1 construct: also called AFP158 tetramer; AFP158/HLA-A*02:01 tetramers; not shown: BSP peptide (BirA biotinylation site) at the C-terminus
As to the kind of experiment: flow cytometry, PE-labelled tetramer on transduced J.RT3-T3.5 cells. For orientation: Flow cytometry measures light scatter and fluorescence of single cells or particles in a stream.

Experiment [2] deals with T1, PE-labeled AFP158/HLA-A*02:01 tetramer. The experiment is described as follows: flow cytometry, PE-labelled tetramer on transduced Jurkat cells.

B1: anti-AFP158/HLA-A*02:01-abTCR-3 (other)
chain 1: EVQLVQSGAEVKKPGESLTISCKASGYSFPNYWITWVRQMSGGGLEWMGRIDPGDSYTTYNPSFQGHVTISIDKSTNTAYLHWNSLKASDTAMYYCARYYVSLVDIWGQGTLVTVSSASTKGPSVFPLAPSSKSTSGGTAALGCLVKDYFPEPVTVSWNSGALTSGVHTFPAVLQSSGLYSLSSVVTVPSSSLGTQTYICNVNHKPSNTKVDKRVEPKSCESSCDVKLVEKSFETDTNLNFQNLSVIGFRILLLKVAGFNLLMTLRLWSSDYKDHDGDYKDHDIDYKDDDDK
chain 2: QSVLTQPASVSGSPGQSITISCTGTSSDVGGYNYVSWYQQHPGKAPKLMIYDVNNRPSEVSNRFSGSKSGNTASLTISGLQAEDEADYYCSSYTTGSRAVFGGGTKLTVLGQPKANPTVTLFPPSSEELQANKATLVCLISDFYPGAVTVAWKADGSPVKAGVETTKPSKQSNNKYAASSYLSLTPEQWKSHRSYSCQVTHEGSTVEKTVAPTECSADCGFTSVSYQQGVLSATILYEILLGKATLYAVLVSALVLMAMVKRKDFYPYDVPDYA
notes: the junction between chain and tag is not described
With B1, in experiment [1], the binding result is recorded as “binds”.

B2: anti-AFP158/HLA-A*02:01-abTCR-5 (other)
chain 1: QSVLTQPASVSGSPGQSITISCTGTSSDVGGYNYVSWYQQHPGKAPKLMIYDVNNRPSEVSNRFSGSKSGNTASLTISGLQAEDEADYYCSSYTTGSRAVFGGGTKLTVLGQPKANPTVTLFPPSSEELQANKATLVCLISDFYPGAVTVAWKADGSPVKAGVETTKPSKQSNNKYAASSYLSLTPEQWKSHRSYSCQVTHEGSTVEKTVAPTECSDHVKPKETENTKQPSKSCHKPKAIVHTEKVNMMSLTVLGLRMLFAKTVAVNFLLTAKLFFLYPYDVPDYA
chain 2: EVQLVQSGAEVKKPGESLTISCKASGYSFPNYWITWVRQMSGGGLEWMGRIDPGDSYTTYNPSFQGHVTISIDKSTNTAYLHWNSLKASDTAMYYCARYYVSLVDIWGQGTLVTVSSASTKGPSVFPLAPSSKSTSGGTAALGCLVKDYFPEPVTVSWNSGALTSGVHTFPAVLQSSGLYSLSSVVTVPSSSLGTQTYICNVNHKPSNTKVDKRVEPKSCMDPKDNCSKDANDTLLLQLTNTSAYYMYLLLLLKSVVYFAIITCCLLRRTAFCCNGEKSDYKDHDGDYKDHDIDYKDDDDK
notes: as for B1
For the molecule B2, the binding result in experiment [2] is listed as “binds”.

B3: anti-AFP158/HLA-A*02:01-abTCR-6 (other)
chain 1: EVQLVQSGAEVKKPGESLTISCKASGYSFPNYWITWVRQMSGGGLEWMGRIDPGDSYTTYNPSFQGHVTISIDKSTNTAYLHWNSLKASDTAMYYCARYYVSLVDIWGQGTLVTVSSASTKGPSVFPLAPSSKSTSGGTAALGCLVKDYFPEPVTVSWNSGALTSGVHTFPAVLQSSGLYSLSSVVTVPSSSLGTQTYICNVNHKPSNTKVDKRVEPKSCDHVKPKETENTKQPSKSCHKPKAIVHTEKVNMMSLTVLGLRMLFAKTVAVNFLLTAKLFFLYPYDVPDYA
chain 2: QSVLTQPASVSGSPGQSITISCTGTSSDVGGYNYVSWYQQHPGKAPKLMIYDVNNRPSEVSNRFSGSKSGNTASLTISGLQAEDEADYYCSSYTTGSRAVFGGGTKLTVLGQPKANPTVTLFPPSSEELQANKATLVCLISDFYPGAVTVAWKADGSPVKAGVETTKPSKQSNNKYAASSYLSLTPEQWKSHRSYSCQVTHEGSTVEKTVAPTECSMDPKDNCSKDANDTLLLQLTNTSAYYMYLLLLLKSVVYFAIITCCLLRRTAFCCNGEKSDYKDHDGDYKDHDIDYKDDDDK
notes: as for B1
For the molecule B3, in experiment [2], the binding result was “binds”.

B4: anti-AFP158/HLA-A*02:01-abTCR-4 (other)
chain 1: QSVLTQPASVSGSPGQSITISCTGTSSDVGGYNYVSWYQQHPGKAPKLMIYDVNNRPSEVSNRFSGSKSGNTASLTISGLQAEDEADYYCSSYTTGSRAVFGGGTKLTVLGQPKANPTVTLFPPSSEELQANKATLVCLISDFYPGAVTVAWKADGSPVKAGVETTKPSKQSNNKYAASSYLSLTPEQWKSHRSYSCQVTHEGSTVEKTVAPTECSESSCDVKLVEKSFETDTNLNFQNLSVIGFRILLLKVAGFNLLMTLRLWSSDYKDHDGDYKDHDIDYKDDDDK
chain 2: EVQLVQSGAEVKKPGESLTISCKASGYSFPNYWITWVRQMSGGGLEWMGRIDPGDSYTTYNPSFQGHVTISIDKSTNTAYLHWNSLKASDTAMYYCARYYVSLVDIWGQGTLVTVSSASTKGPSVFPLAPSSKSTSGGTAALGCLVKDYFPEPVTVSWNSGALTSGVHTFPAVLQSSGLYSLSSVVTVPSSSLGTQTYICNVNHKPSNTKVDKRVEPKSCADCGFTSVSYQQGVLSATILYEILLGKATLYAVLVSALVLMAMVKRKDFYPYDVPDYA
notes: as for B1
Turning to B4, in experiment [2], the binding result is on record as “binds”.
